The values below come from patent US20160355591A1.

Test [1] addresses T1, CD20 on human cells (human) (UniProt P11836).
T1 sequence (looked up): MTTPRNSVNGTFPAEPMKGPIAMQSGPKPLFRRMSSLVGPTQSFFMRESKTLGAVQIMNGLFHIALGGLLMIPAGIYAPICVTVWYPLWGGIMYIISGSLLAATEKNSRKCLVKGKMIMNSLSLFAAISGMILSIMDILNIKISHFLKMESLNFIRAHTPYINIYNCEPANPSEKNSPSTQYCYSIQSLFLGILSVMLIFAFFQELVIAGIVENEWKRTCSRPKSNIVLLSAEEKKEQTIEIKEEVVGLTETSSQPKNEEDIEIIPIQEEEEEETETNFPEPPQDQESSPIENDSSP
As to the kind of experiment: RS4;11 (ALL) cells; no mAb 6.4.

Test [2] has as its target T1, CD20 on human cells (human). As to the kind of experiment: REH (ALL) cells; no mAb 3.9.
Test [3] addresses T2, CD20 on dog lymphocytes and dog lymphoma cells (dog) (UniProt Q3C2E2).
T2 sequence (looked up): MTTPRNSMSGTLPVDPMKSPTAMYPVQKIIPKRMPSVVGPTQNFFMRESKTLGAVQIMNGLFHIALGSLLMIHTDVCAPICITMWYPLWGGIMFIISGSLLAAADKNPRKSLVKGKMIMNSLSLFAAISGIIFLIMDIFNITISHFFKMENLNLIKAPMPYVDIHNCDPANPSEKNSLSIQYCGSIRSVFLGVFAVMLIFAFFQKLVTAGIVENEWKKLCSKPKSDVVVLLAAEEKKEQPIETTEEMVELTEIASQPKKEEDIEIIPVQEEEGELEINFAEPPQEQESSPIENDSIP
The experiment in a line: flow cytometry on tumor aspirates from dogs with lymphoma. In general terms: Flow cytometry measures light scatter and fluorescence of single cells or particles in a stream.

Test [4] concerns the target T2, CD20 on dog lymphocytes and dog lymphoma cells (dog). As to the kind of experiment: flow cytometry, dog lymphoma aspirate; none 3.85.
For test [5], the target named is T1, CD20 on human cells (human). The experiment in a line: WAC (CLL) cells; no mAb 15.8.
Test [6] addresses T2, CD20 on dog lymphocytes and dog lymphoma cells (dog). The experiment in a line: flow cytometry, canine lymphoma aspirate 150836; none 3.4.
The target in test [7] is T1, CD20 on human cells (human). The experiment in a line: MN60 (ALL) cells; no mAb 8.1.
The target is the same in test [8]. As to the kind of experiment: Kasumi-3 (AML) cells; no mAb 9.6.
Test [9] concerns the target T2, CD20 on dog lymphocytes and dog lymphoma cells (dog). The experiment in a line: flow cytometry, dog lymphoma aspirate; none 3.37.
In test [10] the target is T1, CD20 on human cells (human). The experiment in a line: HC-1 (hairy cell leukemia) cells; no mAb 4.8.
The target of test [11] is T2, CD20 on dog lymphocytes and dog lymphoma cells (dog). As to the kind of experiment: flow cytometry, canine lymphoma aspirate 150836; none 3.9.
The target of test [12] is T1, CD20 on human cells (human). As to the kind of experiment: indirect flow cytometry, Namalwa cells, FITC-GAM 2nd Ab; none 2.91.
Test [13] has the same target. As to the kind of experiment: Granta-519 (MCL) cells; no mAb 15.3.
The target is the same in test [14]. As to the kind of experiment: K562 (CML) cells; no mAb 3.2.
For test [15] the target is unchanged. As to the kind of experiment: MEC-1 (CLL) cells; no mAb 4.7.
For test [16] the target is unchanged. The experiment in a line: Kasumi-1 (AML) cells; no mAb 18.2.
For test [17] the target is unchanged. The experiment in a line: Jeko-1 (MCL) cells; no mAb 14.3.
The target is the same in test [18]. The experiment in a line: 697 (ALL) cells; no mAb 4.9.
For test [19] the target is unchanged. The experiment in a line: GDM-1 (AML) cells; no mAb 16.8.
Test [20] deals with HLA-DR (L243 antigen) on canine lymphocytes and canine lymphoma cells (dog). The experiment in a line: flow cytometry, dog lymphoma aspirate; none 3.37; control antibody.
Test [21] concerns the target HLA-DR (human leukocyte antigen-DR) on human lymphoma and leukemia cells and human lymphocytes (human). The experiment in a line: GDM-1 (AML) cells; no mAb 16.8; isotype control.
Test [22] shares this target. The experiment in a line: Kasumi-3 (AML) cells; no mAb 9.6; isotype control.
For test [23] the target is unchanged. The experiment in a line: indirect flow cytometry, Namalwa cells, FITC-GAM 2nd Ab; none 2.91; control antibody.
Test [24] shares this target. As to the kind of experiment: MEC-1 (CLL) cells; no mAb 4.7; isotype control.
Test [25] has the same target. As to the kind of experiment: HC-1 (hairy cell leukemia) cells; no mAb 4.8; isotype control.
The target in test [26] is HLA-DR (L243 antigen) on canine lymphocytes and canine lymphoma cells (dog). The experiment in a line: flow cytometry, dog lymphoma aspirate; none 3.85; control antibody.
Test [27] addresses HLA-DR (human leukocyte antigen-DR) on human lymphoma and leukemia cells and human lymphocytes (human). The experiment in a line: RS4;11 (ALL) cells; no mAb 6.4; isotype control.
The target of test [28] is HLA-DR (L243 antigen) on canine lymphocytes and canine lymphoma cells (dog). The experiment in a line: flow cytometry, canine lymphoma aspirate 150836; none 3.9; control antibody.
In test [29] the target is HLA-DR (human leukocyte antigen-DR) on human lymphoma and leukemia cells and human lymphocytes (human). As to the kind of experiment: 697 (ALL) cells; no mAb 4.9; isotype control.
The target is the same in test [30]. As to the kind of experiment: K562 (CML) cells; no mAb 3.2; isotype control.
Test [31] shares this target. The experiment in a line: Jeko-1 (MCL) cells; no mAb 14.3; isotype control.
For test [32] the target is unchanged. The experiment in a line: REH (ALL) cells; no mAb 3.9; isotype control.
In test [33] the target is HLA-DR (L243 antigen) on canine lymphocytes and canine lymphoma cells (dog). The experiment in a line: flow cytometry, canine lymphoma aspirate 150836; none 3.4; control antibody.
Test [34] has as its target HLA-DR (human leukocyte antigen-DR) on human lymphoma and leukemia cells and human lymphocytes (human). As to the kind of experiment: WAC (CLL) cells; no mAb 15.8; isotype control.
The target is the same in test [35]. The experiment in a line: MN60 (ALL) cells; no mAb 8.1; isotype control.
Test [36] has the same target. As to the kind of experiment: Granta-519 (MCL) cells; no mAb 15.3; isotype control.
Test [37] shares this target. As to the kind of experiment: Kasumi-1 (AML) cells; no mAb 18.2; isotype control.
Test [38] has as its target CD22 on human cells (human) (UniProt P20273). The experiment in a line: RS4;11 (ALL) cells; no mAb 6.4.
The target is the same in test [39]. As to the kind of experiment: REH (ALL) cells; no mAb 3.9.
Test [40] addresses CD22 on dog lymphocytes and dog lymphoma cells (dog). As to the kind of experiment: flow cytometry, dog lymphoma aspirate; none 3.85.
Test [41] addresses CD22 on human cells (human) (UniProt P20273). The experiment in a line: WAC (CLL) cells; no mAb 15.8.
In test [42] the target is CD22 on dog lymphocytes and dog lymphoma cells (dog). The experiment in a line: flow cytometry, canine lymphoma aspirate 150836; none 3.4.
The target in test [43] is CD22 on human cells (human) (UniProt P20273). As to the kind of experiment: MN60 (ALL) cells; no mAb 8.1.
Test [44] has the same target. The experiment in a line: Kasumi-3 (AML) cells; no mAb 9.6.
Test [45] addresses CD22 on dog lymphocytes and dog lymphoma cells (dog). As to the kind of experiment: flow cytometry, dog lymphoma aspirate; none 3.37.
For test [46], the target named is CD22 on human cells (human) (UniProt P20273). As to the kind of experiment: HC-1 (hairy cell leukemia) cells; no mAb 4.8.
Test [47] has as its target CD22 on dog lymphocytes and dog lymphoma cells (dog). The experiment in a line: flow cytometry, canine lymphoma aspirate 150836; none 3.9.
In test [48] the target is CD22 on human cells (human) (UniProt P20273). The experiment in a line: indirect flow cytometry, Namalwa cells, FITC-GAM 2nd Ab; none 2.91.
For test [49] the target is unchanged. As to the kind of experiment: Granta-519 (MCL) cells; no mAb 15.3.
Test [50] shares this target. As to the kind of experiment: K562 (CML) cells; no mAb 3.2.
For test [51] the target is unchanged. As to the kind of experiment: MEC-1 (CLL) cells; no mAb 4.7.
Test [52] shares this target. As to the kind of experiment: Kasumi-1 (AML) cells; no mAb 18.2.
The target is the same in test [53]. The experiment in a line: Jeko-1 (MCL) cells; no mAb 14.3.
Test [54] has the same target. As to the kind of experiment: 697 (ALL) cells; no mAb 4.9.
For test [55] the target is unchanged. The experiment in a line: GDM-1 (AML) cells; no mAb 16.8.
The target in test [56] is HLA-DR (human leukocyte antigen-DR) on human lymphoma and leukemia cells and human lymphocytes (human). As to the kind of experiment: indirect flow cytometry, Namalwa cells, FITC-GAM 2nd Ab; none 2.91; antibody of irrelevant specificity.
The target in test [57] is Fcγ-receptor on effector cells. The experiment in a line: cell-based or functional assay.
In test [58] the target is CD22 on dog lymphocytes and dog lymphoma cells (dog). As to the kind of experiment: flow cytometry, dog lymphoma aspirate; none 3.24.
The target is the same in test [59]. The experiment in a line: flow cytometry, canine lymphoma aspirate 150836; none 4.5.
Test [60] shares this target. The experiment in a line: flow cytometry, canine lymphoma aspirate 150836; none 3.2.
Test [61] has the same target. As to the kind of experiment: flow cytometry, dog lymphoma aspirate; none 4.48.
Test [62] addresses HLA-DR (human leukocyte antigen-DR) on human lymphoma and leukemia cells and human lymphocytes (human). As to the kind of experiment: indirect flow cytometry, Namalwa cells, FITC-GAH 2nd Ab; none 2.52; antibody of irrelevant specificity (anti-EGP-1).

Take “2B8 (murine anti-human CD20 mAb) (antibody)”: the mean FL in test [1] was determined as 11.5; in test [2], 23.5; in test [5], 275; in test [6] it was 3.1; in [7], 162; in test [8] it was 11. The mean FL was 3.11 in [9]; 42.2 in test [10]; 677 in [13]; 4.3 in test [14]; 175 in test [15]; 14.5 in test [16]. Also, the mean FL is 455 in test [17], 6.9 in test [18] and 15.6 in test [19]. This substance also gave a positive samples (of 21 samples) in test [3] of 5. Further, the strongly positive samples (of 21 samples) in [3] was 3. Moreover, the % Positive in [4] stood at 2.61%; in test [11] it was 2.6%. In test [12], this substance yielded a geometric mean fluorescence of 6.16.

Consider “Ag8 (P3x63 Ag8, murine myeloma derived mAb, isotype control) (antibody)”, for which the mean FL came out at 3.04 in test [20]; 20.1 in test [21]; 15.7 in test [22]; 6 in [24]; 3.5 in test [25]; 8.6 in test [27]. Besides, the mean FL in test [29] worked out at 5.6; in test [30], 4.1; in test [31], 17.4; in test [32], 3.9; in test [33], 3; in [34] it was 14.4. Moreover, the figures for the mean FL in test [35], in [36] and in [37] were 10.5, 16.9 and 17, respectively. The substance further registered a geometric mean fluorescence in test [23] of 3.64. For the same substance, the % Positive in [26] worked out at 2.81%; in test [28], 2.8%.

For “LL2 (murine anti-human CD22 mAb) (antibody)”, the mean FL stood at 20.9 in [38]; 16.8 in test [39]; 20.1 in test [41]; 3.7 in [42]; 17.1 in test [43]; 13.9 in [44]. For the same substance, the mean FL in [45] was determined as 3.73; in [46], 17.8; in test [49] it was 28.6; in test [50], 4.3; in test [51], 49; in test [52], 20.9. The mean FL amounted to 25 in test [53], 15.9 in test [54] and 28.5 in test [55]. Also, the values for the % Positive in [40] and in [47] were 5.05% and 5.1%, respectively. For the same substance, in test [48], the geometric mean fluorescence amounted to 10.5.

RS7 (murine mAb) (antibody) yielded a geometric mean fluorescence in test [56] of 3.39.

Take “hL243 (humanized L243 anti-HLA-DR antibody, IgG1/K isotype)”: the specific lysis of Daudi target cells (ADCC), corrected for the effect on effector cells in test [57] stood at 48%.

“hL243γ4P (IMMU-114; humanized L243, IgG4/K isotype with Ser241Pro hinge mutation) (antibody)” returned a specific lysis of Daudi target cells (ADCC), corrected for the effect on effector cells in test [57] of 12%.

Turning to “hLL2 (epratuzumab, humanized anti-CD22) (antibody)”, the mean FL in test [58] turned out to be 3.37; in [60], 3.4. Moreover, the % Positive in test [59] is 4.9%; in test [61] it was 4.85%.

hRS7 (humanized anti-EGP-1 antibody) showed a geometric mean fluorescence in test [62] of 2.47.
